Laboratory results reported in paper PMC9663324, “Structural and mutational studies suggest key residues to determine whether stomatin SPFH domains form dimers or trimers” (Biochemistry and Biophysics Reports, 2022).

B1: PhStom (56–234) K59S (domain or fragment, Pyrococcus horikoshii, UniProt O59180 56-234, looked up)
chain: IFESAVIVDLRTQVLDVPVQETITKDNVPVRVNAVVYFRVVDPVKAVTQVKNYIMATSQISQTTLRSVIGQAHLDELLSERDKLNMQLQRIIDEATDPWGIKVTAVEIKDVELPAGMQKAMARQAEAERERRARITLAEAERQAAEKLREAAEIISEHPMALQLRTLQTISDVAGDKSN
notes: stomatin PH1511 of Pyrococcus horikoshii, residues 56–234 with K59S; Initial methionine added before residue 56; PDB 3BK6 is the parent (wild type) of the same limits; also called K59S mutant of PhStom (56–234); K59S mutant; source: E. coli BL21 (DE3) Codon-Plus RIL, purified (heat 85 °C, Ni-NTA, Superdex 200 gel filtration)
B2: PhStom (63–234) (domain or fragment, Pyrococcus horikoshii, UniProt O59180 63-234, looked up)
chain: VDLRTQVLDVPVQETITKDNVPVRVNAVVYFRVVDPVKAVTQVKNYIMATSQISQTTLRSVIGQAHLDELLSERDKLNMQLQRIIDEATDPWGIKVTAVEIKDVELPAGMQKAMARQAEAERERRARITLAEAERQAAEKLREAAEIISEHPMALQLRTLQTISDVAGDKSN
notes: stomatin PH1511 of Pyrococcus horikoshii, residues 63–234; Initial methionine added before residue 63; In the crystal (8GN9) only residues 64–169 are modelled; the authors consider that residues 170–234 (and so the tag) were degraded during crystallization; source: E. coli BL21 (DE3) Codon-Plus RIL, purified (heat 85 °C, Ni-NTA, Superdex 200 gel filtration)

Target: the molecule itself
Assay: SEC; Hi Load 16/60 Superdex 200 gel-filtration column, 50 mM Tris-HCl (pH 8.2), 50 mM NaCl, 1 mL/min; approximate molecular mass estimated from the elution of calibration proteins (44–669 kDa)

Protein	stoichiometry N
B1	2
B2	2
